US20120316071A1
Blank lines part the entries; values can stand above or below the substance they belong to.

Key:
[1] = target: rHuman ErbB2/Fc Chimera, CF (R&D Systems Cat#1129-ER) (human) (UniProt P04626); assay: Multispot ECL (MSD), antigen spotted on plate, Fab 4.375 nM; blank spot 305
[2] = target: rHuman CD44/Fc Chimera, CF (R&D Systems Cat#3660-CD) (human) (UniProt P16070); assay: as above
[3] = target: rHuman Notch-1/Fc Chimera, CF (R&D Systems Cat#3647-TK) (human) (UniProt P46531); assay: as above
[4] = target: rHuman IGF-1 sR, (IGF-1 sR), CF (R&D Systems Cat#391-GR) (human) (UniProt P08069); assay: as above
[5] = target: rHuman HGF R/c-MET/Fc Chimera, CF (R&D Systems Cat#358-MT/CF) (human) (UniProt P08581); assay: as above
Sequence of rHuman HGF R/c-MET/Fc Chimera, CF (R&D Systems Cat#358-MT/CF) (human) (P08581 25-932, change not shown): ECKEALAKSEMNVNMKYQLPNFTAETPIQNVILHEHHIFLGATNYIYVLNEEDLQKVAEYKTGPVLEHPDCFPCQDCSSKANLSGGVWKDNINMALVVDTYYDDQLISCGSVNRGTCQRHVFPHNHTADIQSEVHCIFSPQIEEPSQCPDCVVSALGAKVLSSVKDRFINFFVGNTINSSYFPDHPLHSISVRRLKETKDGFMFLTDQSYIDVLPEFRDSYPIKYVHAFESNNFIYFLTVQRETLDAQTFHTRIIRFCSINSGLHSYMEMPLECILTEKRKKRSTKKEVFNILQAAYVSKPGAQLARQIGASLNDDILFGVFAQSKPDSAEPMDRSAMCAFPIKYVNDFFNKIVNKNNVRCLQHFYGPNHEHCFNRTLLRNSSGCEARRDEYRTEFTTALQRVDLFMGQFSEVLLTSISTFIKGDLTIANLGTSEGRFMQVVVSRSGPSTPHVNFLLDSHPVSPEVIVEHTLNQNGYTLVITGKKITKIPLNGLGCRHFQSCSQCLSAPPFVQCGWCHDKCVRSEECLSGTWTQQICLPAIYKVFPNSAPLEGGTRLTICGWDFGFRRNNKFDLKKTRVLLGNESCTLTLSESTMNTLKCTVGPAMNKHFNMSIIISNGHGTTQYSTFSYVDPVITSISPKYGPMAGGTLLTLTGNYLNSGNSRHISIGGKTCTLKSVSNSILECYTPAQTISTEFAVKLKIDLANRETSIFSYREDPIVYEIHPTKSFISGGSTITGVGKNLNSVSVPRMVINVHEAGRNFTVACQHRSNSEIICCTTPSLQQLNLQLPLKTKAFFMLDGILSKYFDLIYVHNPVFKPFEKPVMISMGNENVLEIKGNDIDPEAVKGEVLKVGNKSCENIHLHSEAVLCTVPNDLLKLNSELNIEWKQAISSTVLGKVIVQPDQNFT

[6] = target: rHuman P-Cadherin/Fc Chimera, CF (R&D Systems Cat#861-PC) (human) (UniProt P22223); assay: as above
[7] = target: rHuman ErbB2/Fc Chimera, CF (R&D Systems Cat#1129-ER) (human) (UniProt P04626); assay: Multispot ECL (MSD), antigen spotted on plate, Fab 280 nM; blank spot 1691
[8] = target: rHuman CD44/Fc Chimera, CF (R&D Systems Cat#3660-CD) (human) (UniProt P16070); assay: as above
[9] = target: rHuman Notch-1/Fc Chimera, CF (R&D Systems Cat#3647-TK) (human) (UniProt P46531); assay: as above
[10] = target: rHuman IGF-1 sR, (IGF-1 sR), CF (R&D Systems Cat#391-GR) (human) (UniProt P08069); assay: as above
[11] = target: rHuman HGF R/c-MET/Fc Chimera, CF (R&D Systems Cat#358-MT/CF) (human) (UniProt P08581); assay: as above
[12] = target: rHuman P-Cadherin/Fc Chimera, CF (R&D Systems Cat#861-PC) (human) (UniProt P22223); assay: as above
[13] = target: rHuman ErbB2/Fc Chimera, CF (R&D Systems Cat#1129-ER) (human) (UniProt P04626); assay: Multispot ECL (MSD), antigen spotted on plate, Fab 17.5 nM; blank spot 304
[14] = target: rHuman CD44/Fc Chimera, CF (R&D Systems Cat#3660-CD) (human) (UniProt P16070); assay: as above
[15] = target: rHuman Notch-1/Fc Chimera, CF (R&D Systems Cat#3647-TK) (human) (UniProt P46531); assay: as above
[16] = target: rHuman IGF-1 sR, (IGF-1 sR), CF (R&D Systems Cat#391-GR) (human) (UniProt P08069); assay: as above
[17] = target: rHuman HGF R/c-MET/Fc Chimera, CF (R&D Systems Cat#358-MT/CF) (human) (UniProt P08581); assay: as above
[18] = target: rHuman P-Cadherin/Fc Chimera, CF (R&D Systems Cat#861-PC) (human) (UniProt P22223); assay: as above
[19] = target: rHuman ErbB2/Fc Chimera, CF (R&D Systems Cat#1129-ER) (human) (UniProt P04626); assay: Multispot ECL (MSD), antigen spotted on plate, Fab 70 nM; blank spot 635
[20] = target: rHuman CD44/Fc Chimera, CF (R&D Systems Cat#3660-CD) (human) (UniProt P16070); assay: as above
[21] = target: rHuman Notch-1/Fc Chimera, CF (R&D Systems Cat#3647-TK) (human) (UniProt P46531); assay: as above
[22] = target: rHuman IGF-1 sR, (IGF-1 sR), CF (R&D Systems Cat#391-GR) (human) (UniProt P08069); assay: as above
[23] = target: rHuman HGF R/c-MET/Fc Chimera, CF (R&D Systems Cat#358-MT/CF) (human) (UniProt P08581); assay: as above
[24] = target: rHuman P-Cadherin/Fc Chimera, CF (R&D Systems Cat#861-PC) (human) (UniProt P22223); assay: as above
[25] = target: rHuman EGF R/Fc Chimera, CF (R&D Systems Cat#344-ER) (human) (UniProt P00533); assay: MSD Multispot ECL, antigen spotted on plate, Fab 14.375 nM; blank spot 738
[26] = target: rHuman EGF R/Fc Chimera, CF (R&D Systems Cat#344-ER) (human) (UniProt P00533); assay: MSD Multispot ECL, antigen spotted on plate, Fab 230 nM; blank spot 1656
[27] = target: rHuman EGF R/Fc Chimera, CF (R&D Systems Cat#344-ER) (human) (UniProt P00533); assay: MSD Multispot ECL, antigen spotted on plate, Fab 57.5 nM; blank spot 954
[28] = target: rHuman EGF R/Fc Chimera, CF (R&D Systems Cat#344-ER) (human) (UniProt P00533); assay: MSD Multispot ECL, antigen spotted on plate, Fab 920 nM; blank spot 4082

ECL signal [1]: 384 | ECL signal [2]: 424 | ECL signal [3]: 480 | ECL signal [4]: 369 | ECL signal [5]: 193 | ECL signal [6]: 469 | ECL signal [7]: 3950 | ECL signal [8]: 4070 | ECL signal [9]: 4380 | ECL signal [10]: 3530 | ECL signal [11]: 3560 | ECL signal [12]: 5400 | ECL signal [13]: 541 | ECL signal [14]: 664 | ECL signal [15]: 680 | ECL signal [16]: 626 | ECL signal [17]: 565 | ECL signal [18]: 949 | ECL signal [19]: 1360 | ECL signal [20]: 1370 | ECL signal [21]: 1490 | ECL signal [22]: 1320 | ECL signal [23]: 1290 | ECL signal [24]: 1820
Substance: Fab VH1-46_IGHD2-15*01_IGHJ2*01 & L12_IGKJ1*01

ECL signal [25]: 2670 | ECL signal [26]: 5720 | ECL signal [27]: 3860 | ECL signal [28]: 13400
Substance: Fab VH1-46_IGHD3-10*01_IGHJ4*01 & L12_IGKJ1*01
